From patent publication US11925667B2, “Engineered therapeutic probiotic system and method” (priority 2018, dated 2024)

Test system: C=CC/C(=N/OS(=O)(=O)O)S[C@@H]1O[C@H](CO)[C@@H](O)[C@H](O)[C@H]1O
Experiment: Myrosinase activity assay (glucose release from sinigrin hydrolysis), TGG1
Assay type: biochemical, Arabidopsis thaliana
Protocol: Screening for improved β-thioglucosidase. The activity and stability of myrosinase, a β-thioglucosidase that hydrolyzes glucosinolate to sulforaphane, varies at differing pH and temperature; in a preferred embodiment the selected enzyme needs to function under physiological colorectal conditions. The healthy colon pH averages 6.6, while it is 7.0 and 6.7 in patients with adenoma and carcinoma, respectively. In addition, the temperature of the human intestinal tract ranges from 36° C. to 40° C. depending on the individual's metabolic state. In the illustrative example five plant-derived myrosinase orthologues with minimal glycosylation sites and the absence of the co-factor-binding sites using the BLAST search and the Enzyme Function Initiative-Enzyme Similarity Tool (EFI-EST), are compared to the well-characterized myrosinases from Brevicoryne brassicae (BMY1) and Arabidopsis thaliana (TGG1) (FIG. 2a and FIG. 7).
Gene cloning, protein expression and purification. Myrosinase genes are optimized for E. coli expression and cloned into the pET28b expression vector. The plasmids are transformed into E. coli BL21 (DE3) cultured in lysogeny broth (LB) (BD, Le Pont de Claix, France) at 37° C., 225 rpm to OD600 0.6 followed by 0.5 mM isopropyl β-D-1-thiogalactopyranoside (IPTG) induction at 16° C., 180 rpm for 16 hours. Cells are harvested, resuspended in lysis buffer (50 mM Tris-Cl, 300 mM NaCl, 10% glycerol, 1 mM dithiothreitol [DTT], pH 8.0) and lysed using Emulsiflex C-3 (Avestin). Expressed myrosinases are purified by IMAC Ni-NTA purification followed by Hi-Load Superdex 200 size exclusion column chromatography (GE, Uppsala, Sweden). The purified protein is concentrated and stored at −80° C. Pilot scale protein purification and enzymatic assay is conducted.
Myrosinase screening assay. The enzymatic reaction is measured for the release of glucose resulting from sinigrin hydrolysis. The reaction is conducted in sodium phosphate-buffered solution supplied in the Amplex® Red Glucose/Glucose Oxidase Assay Kit (Thermo Fisher Scientific, Geel, Belgium). The reaction buffer is prepared at different pH values (6.0, 6.5, 7.4 and 8.0) and at different reaction temperatures (34° C., 37° C., and 40° C.). The reaction is prepared using 0.1 μM purified myrosinase added to 1× Amplex® Red Glucose Assay reaction mixture and was kick-started with the corresponding concentration of sinigrin. The reaction can be measured at 560 nm absorbance and fluorescence (λex=540 nm, λem=590 nm) using a Synergy H1 Multi-Mode microtiter plate reader (BioTek®, Winooski, USA). The reaction initial velocity (VO) is determined and fitted into a Michaelis-Menten curve. Vmax and KM are determined by fitting into the Michaelis-Menten equation (Eq. 1) using GraphPad Prism Software. ^v=Vmax*[Sinigrin]/(KM+[Sinigrin]) (Eq.1)
Table S1|Myrosinase activity assay screening under various pH and temperature conditions (n=3 independent experiments, each measurement performed in triplicates; mean[…].).

## Arabidopsis thaliana myrosinase TGG1 (Arabidopsis thaliana)
other: pH 6.0, 37° C., pH 6.0, 37.0 °C
  Km: 361 ± 11 µM
other: pH 6.5, 37° C., pH 6.5, 37.0 °C
  Km: 198 ± 20 µM
other: pH 7.4, 34° C., pH 7.4, 34.0 °C
  Km: 78 ± 8 µM
other: pH 7.4, 37° C., pH 7.4, 37.0 °C
  Km: 71 ± 3 µM
other: pH 7.4, 40° C., pH 7.4, 40.0 °C
  Km: 88 ± 9 µM
other: pH 8.0, 37° C., pH 8.0, 37.0 °C
  Km: 137 ± 69 µM
